Experimental data as given in patent US10947504B2, “Method for producing highly functional platelets” (Kyoto University, priority 2015, dated 2021).
Counter-ions that a name gives are not always drawn. Like-named read-outs stand apart in the source and are kept apart here.

Experiments:
[1] = test system: immortalized megakaryocytes; details: for synergistic effect on number and function of platelets produced, ROCK inhibitor combined with SR-1: in combination with SR-1, compared with each alone (FIG. 9)
Experimental: Immortalized megakaryocytes obtained according to the method described in section 1 were washed twice with PBS(−) followed by removing the doxycycline to terminate overexpression, static culturing after disseminating the cells in a 6-well plate at 2 mL/well and a seeding density of 1×10^5 cells/mL, and then shake culturing in an E125 flask at 25 mL/flask and a seeding density of 1×10^5 cells/m L.
The medium was obtained by adding the following components to IMDM serving as the basal medium (concentrations indicate final concentrations).
Culturing was implemented under conditions of 37° C., 5% CO2 and 20% O2. The numbers of platelets and PAC-1 positive cells were measured using the same method as described in the above-mentioned section 2.

[2] = test system: immortalized megakaryocyte line (SeV2-MKCL)
Experimental: Culturing was implemented by disseminating the cells at 2 mL/well in a 6-well plate at a seeding concentration of 1×10^5 cells/mL followed by static culturing in the medium indicated below.
After simultaneously adding SR-1 at the concentrations shown in FIG. 1 and culturing for 7 days, the number and function of the platelets were measured. The measurement method was as shown below.
The culture supernatant was gently suspended using a 1 mL Pipetman 7 days after culturing to terminate gene expression. 200 μL of the culture broth were dispensed into a 5 mL sample tube followed by staining with the antibodies indicated below.
Measurement was carried out using FACS Verse manufactured by Becton Dickinson and Company 30 minutes after the reaction. 400 μL of Tyrode's buffer Ca^+ were added immediately before measurement to bring to a total volume of 600 μL. This total volume of 600 μL was used for the FACS measurement sample.
The number of particles positive for CD42a and CD42b were considered to represent the number of platelets, and the ratio of the mean fluorescence intensities (MFI) of PAC-1 and CD62p in this platelet fraction before and after stimulation was calculated.

[3] = test system: immortalized megakaryocytes; experiment: shRNA knockdown in immortalized megakaryocytes during overexpression: number of CD41a-positive cells; type: cell-based, human; details: during overexpression of BMI1, c-MYC and BCL-xL (FIG. 17)
Text: Genes of shRUNX1 with GFP, shHMGA2 with GFP and SCRAMBLE with GFP were introduced into the immortalized megakaryocytes prepared in the above-mentioned section 1 using a viral vector. The cells introduced with the above genes (GFP-positive cells) were then sorted.

[4] = test system: immortalized megakaryocytes; experiment: shRNA knockdown: multinucleation and platelet production after terminating overexpression of cMYC, BMI1 and BCL-xL; type: cell-based, human
Experimental: Next, the production of platelets was measured after having terminated overexpression of cMYC, BMI1 and BCL-xL genes using the method described in the aforementioned section 1-5.

[5] = test system: immortalized megakaryocytes; experiment: Electron microscopy of shRNA-introduced megakaryocytes cultured with SR-1 and Y27632; type: cell-based, human; details: DOX-free medium containing SR-1 and Y27632 (FIG. 21)
Experimental: Cells introduced with genes shRUNX1, shHMGA2 and shSCRAMBLE obtained in section 9 above were cultured in DOX-free megakaryocyte medium containing SR-1 and Y27632 and observed with an electron microscope.

Cc1ccccc1N=Nc1ccc(NC(=O)c2ccnn2C)c(C)c1 [CH-223191, 2-methyl-2H-pyrazole-3-carboxylic acid (2-methyl-4-o-tolylazo-phenyl)-amide]
synergistic effect on number of platelets produced, AhR antagonist combined with Y27632 ([1]; in combination with Y27632 (FIG. 10)): prominent synergistic effects that exceeded that of SR-1

CC(C)n1cnc2c(NCCc3ccc(O)cc3)nc(-c3csc4ccccc34)nc21 [SR-1, 4-(2-(2-(benzo[b]thiophen-3-yl)-9-isopropyl-9H-purin-6-ylamino)ethyl)phenol]
duration of culturing after which highly functional platelets tend to be obtained ([2]; AhR antagonist added after terminating overexpression): 5 days | platelet function ([2]; compared with the absence of SR-1 (FIG. 1)): higher | number of platelets bound by PAC-1 and anti-CD62p antibody ([2]; static culturing 7 days, no feeder cells, addition of SR-1 (FIG. 1)): confirmed to increase

C[C@@H](N)c1ccc(C(=O)Nc2ccnc3[nH]ccc23)cc1 [Y39983]
synergistic effect on number and function of platelets produced, ROCK inhibitor combined with SR-1 [1]: prominent synergistic effect that exceeded that of Y27632

O=S(=O)(c1cccc2cnccc12)N1CCCNCC1 [fasudil hydrochloride]
synergistic effect on number and function of platelets produced, ROCK inhibitor combined with SR-1 ([1]; hydrochloride): concentration-dependent synergistic effects comparable to that of Y27632

C[C@H]1CNCCCN1S(=O)(=O)c1cccc2cncc(F)c12 [ripasudil]
synergistic effect on number and function of platelets produced, ROCK inhibitor combined with SR-1 [1]: concentration-dependent synergistic effects comparable to that of Y27632

B1: shHMGA2: shRNA against HMGA2, target sequence SEQ ID NO: 5, shRNA sequence SEQ ID NO: 6, introduced with viral vector (nucleic acid)
chain: GATCCCCATGAGACGAAATGCTGATGTATTTCAAGAGAATACATCAGCATTTCGTCTCATTTTTTGGAAAA
number of CD41a-positive cells [3]: decrease | number of platelets produced per megakaryocyte ([4]; after terminating overexpression (bottom of FIG. 19)): increase dramatically | megakaryocyte multinucleation ([4]; after terminating overexpression (top of FIG. 19)): considerable promotion | cell morphology by electron microscopy [5]: multinucleated and enlarged cells were observed | development of demarcation membrane systems (DMS) in the cells [5]: formation of a DMS and secretory granules was observed | formation of secretory granules [5]: formation of a DMS and secretory granules was observed

B2: shRUNX1: shRNA against RUNX1, target sequence SEQ ID NO: 3, shRNA sequence SEQ ID NO: 4 (nucleic acid)
chain: GATCCCCACTTTCCAGTCGACTCTCATTCAAGAGATGAGAGTCGACTGGAAAGTTTTTTGGAAAA
number of CD41a-positive cells [3]: increase | cell morphology by electron microscopy [5]: numerous small nucleated cells | development of demarcation membrane systems (DMS) in the cells [5]: lacking | formation of secretory granules [5]: only be formed to a moderate degree
